# Reference: patent publication US20140322218A1 (Amgen, published 2014)
# T1: muCDH19(44-139)::huCDH19(142-249)::muCDH19(248-770), Flag-tagged, on 293T cells (human/mouse chimera)
# T1 construct: also called Hu EC2; C137913
# T1 chain: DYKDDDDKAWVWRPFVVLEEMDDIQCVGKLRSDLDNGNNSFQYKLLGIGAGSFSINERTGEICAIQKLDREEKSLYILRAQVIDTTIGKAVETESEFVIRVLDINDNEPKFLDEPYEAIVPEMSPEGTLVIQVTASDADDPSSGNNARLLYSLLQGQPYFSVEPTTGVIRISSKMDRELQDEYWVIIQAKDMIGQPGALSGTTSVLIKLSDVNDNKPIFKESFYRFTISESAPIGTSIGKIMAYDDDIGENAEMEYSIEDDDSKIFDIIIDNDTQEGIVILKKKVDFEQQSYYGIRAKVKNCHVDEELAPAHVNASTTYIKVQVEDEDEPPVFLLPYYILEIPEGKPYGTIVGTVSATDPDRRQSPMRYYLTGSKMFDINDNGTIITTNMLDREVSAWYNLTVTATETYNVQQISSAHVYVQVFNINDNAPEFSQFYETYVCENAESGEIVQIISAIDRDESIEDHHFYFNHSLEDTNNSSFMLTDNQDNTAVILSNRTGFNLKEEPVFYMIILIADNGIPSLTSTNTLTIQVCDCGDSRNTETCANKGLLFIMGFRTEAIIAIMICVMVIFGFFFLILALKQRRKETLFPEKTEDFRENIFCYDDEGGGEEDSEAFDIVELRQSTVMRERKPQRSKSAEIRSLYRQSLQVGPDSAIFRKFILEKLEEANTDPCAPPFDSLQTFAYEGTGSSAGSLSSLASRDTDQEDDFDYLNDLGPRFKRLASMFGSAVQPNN
# T2: muCDH19(44-362)::huCDH19(365-772), Flag-tagged, on 293T cells (human/mouse chimera)
# T2 construct: also called Hu EC4-5; C137917
# T2 chain: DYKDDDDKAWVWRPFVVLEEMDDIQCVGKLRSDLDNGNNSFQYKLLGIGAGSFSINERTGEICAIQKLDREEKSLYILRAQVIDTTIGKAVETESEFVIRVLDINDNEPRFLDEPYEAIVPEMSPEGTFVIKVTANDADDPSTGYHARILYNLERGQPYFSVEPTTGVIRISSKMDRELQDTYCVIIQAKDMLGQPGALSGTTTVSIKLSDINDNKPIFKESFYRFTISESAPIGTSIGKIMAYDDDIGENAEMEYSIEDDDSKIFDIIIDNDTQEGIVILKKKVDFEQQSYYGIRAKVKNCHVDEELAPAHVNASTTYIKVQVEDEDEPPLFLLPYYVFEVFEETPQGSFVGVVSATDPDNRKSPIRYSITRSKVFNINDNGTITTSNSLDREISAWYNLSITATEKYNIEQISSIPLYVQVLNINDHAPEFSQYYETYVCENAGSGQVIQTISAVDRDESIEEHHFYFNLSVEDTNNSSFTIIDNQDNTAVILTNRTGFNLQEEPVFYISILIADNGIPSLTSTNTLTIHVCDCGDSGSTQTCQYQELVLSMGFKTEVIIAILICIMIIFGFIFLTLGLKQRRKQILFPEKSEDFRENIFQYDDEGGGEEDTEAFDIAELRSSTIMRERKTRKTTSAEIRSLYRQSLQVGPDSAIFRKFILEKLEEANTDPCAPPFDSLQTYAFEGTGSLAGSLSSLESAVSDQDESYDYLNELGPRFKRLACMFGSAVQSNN
# T3: caCDH19(1-43)::FLAG::caCDH19(44-87)::rhCDH19(89-114)::caCDH19(115-770), on 293T cells (rhesus macaque/dog chimera)
# T3 construct: also called rh EC1b (dog backbone)
# T3 chain: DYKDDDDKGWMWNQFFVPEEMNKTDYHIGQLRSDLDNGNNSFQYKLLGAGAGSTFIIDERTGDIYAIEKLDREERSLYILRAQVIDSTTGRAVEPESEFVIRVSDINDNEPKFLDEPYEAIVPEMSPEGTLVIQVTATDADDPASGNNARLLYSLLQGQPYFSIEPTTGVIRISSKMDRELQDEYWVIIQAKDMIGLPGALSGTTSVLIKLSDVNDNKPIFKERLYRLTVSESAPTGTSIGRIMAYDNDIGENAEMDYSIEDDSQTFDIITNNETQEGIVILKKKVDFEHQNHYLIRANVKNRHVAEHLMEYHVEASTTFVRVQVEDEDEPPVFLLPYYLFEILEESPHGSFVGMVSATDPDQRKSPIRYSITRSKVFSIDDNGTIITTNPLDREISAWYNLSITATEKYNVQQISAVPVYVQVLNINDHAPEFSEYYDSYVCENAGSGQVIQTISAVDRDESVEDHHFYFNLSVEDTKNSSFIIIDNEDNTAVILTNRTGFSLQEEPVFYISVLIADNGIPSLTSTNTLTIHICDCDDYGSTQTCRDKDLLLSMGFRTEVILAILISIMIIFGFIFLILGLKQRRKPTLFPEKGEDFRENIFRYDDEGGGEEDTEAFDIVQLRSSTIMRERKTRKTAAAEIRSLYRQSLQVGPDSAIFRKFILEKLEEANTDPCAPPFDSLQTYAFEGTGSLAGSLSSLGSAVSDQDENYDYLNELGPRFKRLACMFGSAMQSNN
# Tests used:
# Human Cadherin-19 = target: T4, Human Cadherin-19 (human, UniProt Q9H159 44-772); experiment: FACS, endogenous and recombinant human CDH19
# T4 construct: Residues 1-43 are named as the native leader in the construct designations and are left out; also called human CDH19; huCDH19
# Protocol: FACS binding assays were performed to evaluate the binding of the anti-Cadherin-19 receptor specific antibodies to endogenous Cadherin-19 receptor expressed on the CHL-1 tumor cell lines.
# FACs assays were performed by incubating hybridoma supernatants with 10,000 to 25,000 cells in PBS/2% Fetal bovine serum/2 mM Calcium Chloride at 4° C. for one hour followed by two washes with PBS/2% Fetal bovine serum/2 mM Calcium Chloride. Cells were then treated with florochrome-labeled secondary antibodies at 4° C. followed by one wash. The cells were resuspended in 50 μl of PBS/2% FBS and antibody binding was analyzed using a FACSCalibur™ instrument.
# [1] = target: T1, muCDH19(44-139)::huCDH19(142-249)::muCDH …; experiment: FACS, transfected 293T
# Description: (§1) The experiment included assaying the anti-CDH19 antibodies against mouse Cadherin19 to determine suitability for binning on these human/mouse chimeras.
# [2] = target: T2, muCDH19(44-362)::huCDH19(365-772), …; experiment: FACS, transfected 293T
# Description: as §1
# [3] = target: T3, caCDH19(1-43)::FLAG::caCDH19(44-87)::rhC …; experiment: FACS, transfected 293T
# Protocol: The following binding assay was completed in presence of 2 mM CaCl2. […] Cells were then washed one time and the amount of cell associated Alexa647-labelled Ab was quantitated by flow cytometry. The experiments included mock transfected controls.
binding result (Human Cadherin-19),binding result [1],binding result [2],binding result [3],Binder
binds,binds,binds,–,"anti-CDH19 antibody 2G6 (Ab ID 13588) (antibody, human IgG1, lambda, V domains shown) VH: QVQLVESGGGVVQPGRSLRLSCAASGFTFSSYGMHWVRQAPGKGLEWVAFIWYDGSNKYYADSVKDRFTISRDNSKNTLYLQMKSLRAEDTAVYYCARRAGIIGTIGYYYGMDVWGQGTTVTVSS VL: SYELTQPPSVSVSPGQTASITCSGDRLGEKYTCWYQQRPGQSPLLVIYQDTKRPSGIPERFSGSNSGNTATLTISGTQAMDEADYYCQAWDSSTVVFGGGTKLTVLG"
–,–,–,no binding (tested: 5 ug/ml),"hu anti-<huCDH19> 4A9 VH::huIgG1z / 4A9 VL::huLLC-C1 (Ab ID 13589) (antibody, V domains shown, Recombinant fully human IgG1) VH: QVQLQESGPGLVKPSETLSLTCTVSGGSISGYYWSWIRQPPGKGLEWFAYFSYSGSTNYNPSLKSRVTLSVDTSKNQFSLKLSSVTAADTAVYYCARNWAFHFDFWGQGTLVTVSS VL: QSVLTQPPSVSGAPGQRVTISCTGSSSNIGTGYAVHWYQQFPGTAPKLLIYGNNNRPSGVPDRFSGSKSGTSASLAITGLQAEDEADYYCQSYDSRLSGWVFGGGTKLTVLG"
binds,–,–,–,"hu anti-<huCDH19> 4B10 VH::huIgG1z / 4B10 VL::huKLC (Ab ID 13590) (antibody, V domains shown) VH: QVQLVESGGGVVQPGRSLRLSCAASGFTFSSYDMHWVRQAPGKGLEWVAVISYDGTNEYYADSVKGRFTISRDTSKNTLYLQMNSLRAEDTAVYYCARERYFDWSFDYWGQGTLVSVSS VL: EIVLTQSPGTLSLSPGERATLSCRASQSVSNTYLAWYHQRPGQAPRLLIYGASSRATGIPDRFSGSGSGTDFALTISSLEPEDFAVYYCQQYSNSWTFGQGTKVEIKR"
–,–,–,binds,"hu anti-<huCDH19> 26D1.1 VH::huIgG1z / 26D1.1 VL::huLLC-C2 (Ab ID 13882) (antibody, V domains shown) VH: QVQLVQSGAEVKKPGASVKVSCKASRYTFTSYYMSWVRQAPGQGLEWMGIIHPSGGDTTYAQKFQGRVTMTGDTSTSTVYMELSSLRSEDTAVYYCARGGIKLWLHFDYWGQGTLVTVSS VL: not shown"
